Results on 20 molecules are retold here after patent publication US20240075139A1.

B1: 5T0223 (antibody, V domains shown)
VH: EVQLVESGGGLVKPGGSLRLSCEASGFTFRNTWMNWVRQAPGKGLEWVGRIKSNTDGGTADYAAPVKGRFTISRDDSKSTLFLEMISLRTEDTGFYYCTKGGPGAHSWGLGTLVTVSS
VL: QSVLTQPPSVSGAPGQRVTISCTGSSSNIGAGYDVQWYQQLPGTAPKVLIYHNTNRPSGVPDRFSGSRSGTSASLVITGLQAEDEADYYCQTYDSRLSDHWVFGGGTKLTVL
B2: 5T0180 (antibody, V domains shown)
VH: EVQLVESGGGLVKPGGSLRLSCAASGFSFGNAWMNWVRQAPGKGLEWVGRIKSKSDGGTTDYAAPVKDRFIISRDDSKKTLYLQMNSLRREDTAVYYCVRGPFYCDTCGPNDYWGQGTLVTVSS
VL: QSVLTQPPSVSGAPGQRVTISCTGSSSNIGAGYDVQWYQQLPGTAPKVLIYGNNNRPSGVPDRFSGSKSGSSASLAITGLQAEDEADYYCQTYDSRLRDQWVFGGGTKLTVL
B3: 5T0337 (antibody, V domains shown)
VH: EVQLVESGGGLVKPGGSLRISCAASGFTFNNAWMNWVRQSPGKGLEWVGRIKSKSDAGTTDYAAPVKGRFIISRDDSKKTLFLQMNSLKIEDTAIYFCMTGFEHTYSYFDLWGRGTQVTVSS
VL: QSVLTQPPSVSGAPGQRVIISCIGGSSNIGAGYDVKWYQQLLPGTAPRLLIYGNTNRPSGVPDRFSGSKSGTSASLAITGLQAEDEADYYCQSYDSRLRDAWVFGGGTKLTVL
B4: 4m0368 (antibody, V domains shown)
VH: QVQLQESGPGLVKPSGTLSLTCAVSGGSISGTNWWTWVRQPPGRGLEWIGEIYYRGSPNYNPSLKSRVTISVDQSKSQFSLKLTSVTAADTAVYYCLRLSHYGGAWGQGTLVTVSS
VL: DIQLTQSPSSLSASVGDRVTITCRASQSISTYLNWYQQKPGKAPKFLIFSASNLQSGVPSRFSGGGSGTDFTLTISSLQPEDFATYYCQQTYNTPRTFGQGTKVEIK
B5: 4T0570 (antibody, V domains shown)
VH: QVQLVQSGAEVKKPGASIKVSCKASGYTFVSKYIHWVRQAPGQGLEWMGIINPSGGRTDYAQKFQGRVTISRDTSTSTVYMELSSLRSEDTAFYYCARALPFRVTGARDVFDIWGQGTMVTVSS
VL: DIQMTQSPSSLSASVGDRVTITCRASQGISTNLAWFQQRPGKAPKSLVYAASTLQNGVPSKFSGSGSGTDFTLTISSLQPEDFATYYCQQYYTYPLTFGGGTKVEIK
B6: 3T0265 (antibody, V domains shown)
VH: EVQLVESGGNLAKPGGSLRLSCAASGFTFSDAWMTWVRQAPGKGLEWVGRIKSNADGGATEYAAPVRGRFTISRDDSRSSLFLQMNSLKTEDTAVYYCLTPPPRRYWGQGILVTVSS
VL: QSVLTQPPSVSGAPGQRVAISCTGSYSNIGAGYDVHWYQQFPGAAPKLLIYAYTNRPAGVPDRFSGSKSGSSASLVISGLQADDEADYYCQSYDARLRDGEVFGGGTKLTV
B7: 4T0784 (antibody, V domains shown)
VH: QVQLVESGGGVVQPGRSLRLSCAASGFTFSTYGVHWVRQAPGKGLEWVGVIWYDGSKKYYADSVKGRFTISRDNSKNTLYLQMNSLRAEDAAVYRCVRGGDLLLLPDSIDYYGMDVWGQGTLVTVSS
VL: KDHDPQAPVSLSASVGDRVTITCRASQGIRNDLGWYQQKPGKAPKRLIYAASSLQSGVPSRFSGSGSGTEFTLTISSLQPEDFATYYCLQHNTYPFSFGPGTKVDIK
B8: 5T0376 (antibody, V domains shown)
VH: QVQLQESGPGLVKPSETLSLTCSVSGASISTLYWSWIRQPPGKGLEWIGYMHSSGTTNYNPSLESRVTMSIDTSRNQFSLKLTSVTAADTAVYYCARGLLGPGDSWGQGTLVTVSS
VL: QSALTQPASVSGSPGQSITISCTGTSSDVGGYNYVSWYQQYPGKAPKLMIYEVTSRPSGVSNRFSGSKSGNTASLTISGLQAEDEGDYYCSSYKTGSTPVVFGGGTKLTVL
B9: 3T0468 (antibody, V domains shown)
VH: EVQLVESGGHLIQPGGSLRLSCAASGFTFRIYDMHWVRQGRRKGLEWVSAIGAAGDTYYSDSVKGRFTISRENAKSSLYLQMNSLSVGDTAVYYCARAAFGAVYYDNWGQGILVTVSS
VL: EIVLTQSPGTLSLSPGERATLSCRASENVDSRFLVWYQQKVGQAPRLLIYGASRRATGIPDRFSGSGSGTDFALTISRLEPEDLAVYYCQQYGRSPITFGQGTRLEIK
B10: 4T0726 (antibody, V domains shown)
VH: QVQLVQSGVEVKEPGASVRVSCKASGYTFTHYGITWVRQAPGQGLEWMGWISGYNGNTDYAQKFQGRITMTTDTSTSTAYMELGRLTSDDTAVYYCARTITMILLGWFDPWGQGTLVTVSS
VL: EIVLTQSPGTLSLSPGERATLSCRASQSVSSNYLAWYQQKPGQAPRLLISGASNRATGLPDGFSGSGSGTDFTLTISRLEPEDFAVFFCQQYGTSPLTFGPGTKVDIK
B11: 4T0306 (antibody, V domains shown)
VH: QVQLQQSGPGLVRPSQTLSLICAISGDSVSDNNAAWNWIRQSPSRGLEWLGRTYFRSRWYNDYPESLKGRVIINPDTAENQVSLQLSSVTPGDTAVYYCVREYYDLWNGFYPGGAMDVWGQGTTVTVSS
VL: DIQLTQSPSSLSASVGDRVTITCRASQDISDFLNWFQQKPGKAPKLLIYDVSKLARGVPSRFSGSASGTDFTFTISSLQPEDIATYYCQQYDDLPRTFGQGTKLEIK
B12: 1T0139 (antibody, V domains shown)
VH: QVQLQESGPGLVKPSETLSLTCIVSGGSLSSYYWSWVRQPAGKGLQWIGHIYTTGSTNYNPSLKSRVTMSIDTSKNQFSLRLSSVTAADTAVYYCARESYRYNAYDIHPFDYWGQGTLVTVSS
VL: SYELTQSSSVSVSPGQTASITCSGDKLGDNYVCWYQQKPGQSPTLVIYQDNRRPSGIPERFSGSNSGNTATLTIRGTQALDEADYYCQAWASNTVVFGGGTKLTVL
B13: 1T0473 (antibody, V domains shown)
VH: QVQLVQSGAEVKKPGASVKVSCKASGYTFPSYEINWVRQATGQGLEWMGWMDPKSGKTGYAQKFQGRVTMTRNPSISTAYLELSSLRSEDSAVYYCARGNQWFGELLSSYYGLDVWGQGTTVTVSS
VL: EIVLTQSPGTLSLSPGEGATLSCRASQSVSSSFLTWYHQKPGQAPRLLIYGASNRATGVPDRFSGGGSGTDFTLTISRLEPEDFGVYYCQQYGSSLITFGPGTKVDIK
B14: 1T0451 (antibody, V domains shown)
VH: QVQLVQSGAEVKKPGASVKISCEASGYNFNGYVIDWVRQAPGQRLEWMGWINPGNGNTKFSPKFQGRVTFTRAASASTAYMELSSLTSEDTALYFCARGRGTSYYYAFDVWGQGTTVTVSS
VL: DIQMTQFPSSLSASVGDRVTISCRASQNISNYLNWYQQKPGKAPKFLIYAASNLQSGVPSRFSGSGSGTGFTLTISNLQPEDFAIYYCQQTYRSPLYTFGQGTKLEIK
B15: 1T0655 (antibody, V domains shown)
VH: QVQLVQSGAEVKKPGASVKVSCKASGYTFTSYYMHWVRQVPGQGLEWMGIIKAGNGGTNYAQNFQGRITVTRDTSTSTVYMELSSLRSEDTAVYYCARDRQWLPLNGYSYFNYGMDVWGQGTTVTVSS
VL: DIQMTQSPSSLSASVGDKITITCRASQSISTYLNWYQQRPGRAPKLLIFGASSLQSGVPSRFSGSGSGTVFTLSISSLQPDDFGSFYCQQSFSSPRTFGQGTKVEIK
B16: 4T0578 (antibody, V domains shown)
VH: EVQLVESGGALVQPGGSLRLSCAASGFTFSRYDIHWVRQASGKGLEWVSAIGKAGDAYYAGSVRGRFTISRENAKNSLYLQMNSLRAGDTAVYYCARASFGDLYFDLWGRGTLVTVSS
VL: DIVMTQSPDSLAVSLGERATINCKSSQSLLHSSNNKNSVAWYQQKPGQPPKLLIYWASTREFGVPDRFSGSGSGTDFALTISSLQAEDVAVYVCQQYYNSPLTFGPGTKVDIK
B17: 5T0202 (antibody, V domains shown)
VH: EVQLVESGGGLVKPGGSLRLSCGASGFSFNDAWMNWVRQAPGKGLEWVGRIKSKADGGGSDTAAPVKGRFIISRDDSKNTLFLQMERLKSEDTGVYYCTTSLNIWGTYRDCWGQGTLVTVSS
VL: QSVLTQPPSVSGAPGQRVTISCTGSYSNIGAGYDVRWYQQLPETAPKLLIYGNNNRPSGVPDRFSGSKSGTSASLAITGLQAEDEADYYCQSYDSRLRDSWVFGGGTRLTVL
B18: 1T0201 (antibody, V domains shown)
VH: EVQLVESGGGLVKPGGSLRLSCAAAGFSFSKAWMNWVRQAPGKGLEWVGRIKSKTDGGTTDYTAPVKGRFIISRDDSKNMLYLQMNSLKAEDTAVYWCTTRVDMEWGKYGTDVWGQGTTVTVSS
VL: QSVLTQPPSVSGAPGQRVTISCTGSSSNIGAGYDVHWYQKLPGTAPKLLIYDKNIRPSGVPDRFSGSKSGVSASLAITGLQAEDEADYYCQSYDSRLSDSWVFGGGTKLTVL
B19: 4T0429 (antibody, V domains shown)
VH: QVQLQQWGAGLLKPSETLSLTCAVYRGSFITYYWSWVRQPPGRGLEWIGEIYKDGSASYNPSLKNRVTISLDMSKNHFSLNLDSVTAADTAVYYCARHGHTGMDVWGQGTTVTVSS
VL: QSVLTQPPSTSGTPGQRVTISCSGSSSNIGLNYVYWYQQLPGTAPKLLIYRNNQRPSGVPDRFSGSKSGTSASLAISGLRSEDEADYYCAAWDDSLSAYIFGTGTKVTVL
B20: 3T0258 (antibody, V domains shown)
VH: QVQLVQSGAEVKQPGASVKVTCKASGSTRSSYDLIWVRQAPGQGLELMGRVNTHNGNTDYAQKFQGRVTMTTDTSTTTAHMELRNLRSDDTAVYYCAWRRSSWFAFDVWGQGTAVTVSS
VL: EIVLTQSPGTLSLSPGERGTLSCRASQSISGNYLGWYQQSPGQAPRLLIYGASNRATGVPDRFSGSGSGTDFTLTISRLEPEDFAVYYCQQYVSSPYTFGQGTKLEIK

In the test the target is EBOV Mayinga (GenBank: NC_002549) (Zaire Ebolavirus (EBOV Mayinga)) (UniProt Q05320). The test is described as follows: cell-based or functional assay.
Chain of UniProt Q05320 (Q05320 33-676 limits assumed): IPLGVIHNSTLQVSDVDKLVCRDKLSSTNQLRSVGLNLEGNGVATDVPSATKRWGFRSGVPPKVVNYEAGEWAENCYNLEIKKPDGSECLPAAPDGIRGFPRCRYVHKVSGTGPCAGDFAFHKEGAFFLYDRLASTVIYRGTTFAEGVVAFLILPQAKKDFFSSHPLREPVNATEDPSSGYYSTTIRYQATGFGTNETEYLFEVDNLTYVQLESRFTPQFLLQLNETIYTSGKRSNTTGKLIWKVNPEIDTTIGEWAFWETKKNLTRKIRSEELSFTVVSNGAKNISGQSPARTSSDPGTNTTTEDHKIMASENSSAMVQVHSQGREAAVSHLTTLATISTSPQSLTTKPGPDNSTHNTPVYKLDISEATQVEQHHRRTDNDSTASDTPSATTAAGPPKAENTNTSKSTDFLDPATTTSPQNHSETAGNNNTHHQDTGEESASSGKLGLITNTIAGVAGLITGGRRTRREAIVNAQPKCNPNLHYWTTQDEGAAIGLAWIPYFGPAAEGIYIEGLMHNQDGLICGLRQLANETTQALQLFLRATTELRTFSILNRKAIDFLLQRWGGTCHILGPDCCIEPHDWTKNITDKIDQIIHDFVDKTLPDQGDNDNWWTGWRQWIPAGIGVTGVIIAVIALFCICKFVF
B1 yielded a neutralization concentration (GMC, CPE reduction on Vero C1008 cells) of 1.86 µg/mL.
Then B2, with 12.5 µg/mL.
B3: the neutralization concentration (GMC, CPE reduction on Vero C1008 cells) was determined as 2.21 µg/mL.
The same measure for B4: 0.13 µg/mL; for B5: 0.09 µg/mL; for B6: 0.44 µg/mL.
The same measure for B7: 1.86 µg/mL; for B8: 12.5 µg/mL; for B9: 2.1 µg/mL.
Molecule B10 came in with a neutralization concentration (GMC, CPE reduction on Vero C1008 cells) of 2.56 µg/mL.
In turn, B11 came in with a neutralization concentration (GMC, CPE reduction on Vero C1008 cells) of 100 µg/mL.
Molecule B12 registered a neutralization concentration (GMC, CPE reduction on Vero C1008 cells) of 7.44 µg/mL.
The same measure for B13: 2.63 µg/mL; for B14: 2.5 µg/mL; for B15: 0.08 µg/mL.
Take B16: the neutralization concentration (GMC, CPE reduction on Vero C1008 cells) is 0.45 µg/mL.
Take B17: the neutralization concentration (GMC, CPE reduction on Vero C1008 cells) came out at 2.5 µg/mL.
Then B18, with 2.63 µg/mL; and B19, with 35 µg/mL.
The same measure for B20: 0.06 µg/mL.
